The data set has as its target GST-FoxO1 DBD (Homo sapiens, UniProt Q12778 151-266). Nature of the data set: EMSA; 1 µM protein, 1 nM DNA, 1 ng/mL poly dI-dC; 20 mM Tris pH 8.0, 50 mM KCl, 5% glycerol, 2 mM DTT, 0.2 mM EDTA, 2 mM MgCl2, 0.1 mg/mL BSA, 1 ng/mL poly dI-dC; RT 30 min; 6% gel in 0.5X TBE at 4 °C. As to conditions: protein: recombinant; tags: GST (pDEST15, N-terminal); blunt. Background: Mobility shift assays separate free from complexed probe on a gel.

Sequence of GST-FoxO1 DBD (Q12778 151-266): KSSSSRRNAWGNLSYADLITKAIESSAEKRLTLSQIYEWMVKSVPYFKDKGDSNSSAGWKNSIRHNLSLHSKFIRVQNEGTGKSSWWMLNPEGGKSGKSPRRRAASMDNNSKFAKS

B1: FoxO DBE duplex (dsDNA)
DNA 1: CAAAATGTAAACAAGA
DNA 2: TCTTGTTTACATTTTG
On to B1, for which the binding result is “binds”.

The record behind these values is paper PMC6297234, “aPKC controls endothelial growth by modulating c-Myc via FoxO1 DNA-binding ability”.
